Source: patent publication US20110039770A1, “INHIBITORS OF PROTEIN KINASE C ISOFORMS AND USES THEREOF” (PHARMAGAP INC., priority 2005, published 2011)
Where no end group is shown, it is not given here.

Key:
[1] = biological target: PKC-δ, purified isoform, Q05655; test: cell-based or functional assay
[2] = biological target: PKC-ζ, purified isoform, Q05513; test: cell-based or functional assay
PKC-ζ, purified isoform [3] = biological target: PKC-ζ, purified isoform (UniProt Q05513); test: competition ELISA on coated purified PKC-ζ vs anti-PKC ζ antibody; PRE 100 µM
PKC-ζ, purified isoform [4] = biological target: PKC-ζ, purified isoform (UniProt Q05513); test: competition ELISA on coated purified PKC-ζ vs anti-PKC ζ antibody; PRE 50 µM
PKC-ζ, purified isoform [5] = biological target: PKC-ζ, purified isoform (UniProt Q05513); test: competition ELISA on coated purified PKC-ζ vs anti-PKC ζ antibody; PRE 200 µM
[6] = biological target: PKC-β (endogenous, IMR-32 lysate) (human) (UniProt P05771); test: WB competition Protocol A, IMR-32 lysate, vs anti-PKC-β Ab; 75 µg peptide
[7] = biological target: PKC-β (endogenous, IMR-32 lysate) (human) (UniProt P05771); test: WB competition Protocol B, IMR-32 extract, vs anti-PKC-β Ab; 100 µg peptide
[8] = biological target: PKC-β (endogenous, IMR-32 lysate) (human) (UniProt P05771); test: WB competition Protocol A, IMR-32 lysate, vs anti-PKC-β Ab; 300 µg peptide
[9] = biological target: PKC-β (endogenous, IMR-32 lysate) (human) (UniProt P05771); test: WB competition Protocol B, IMR-32 extract, vs anti-PKC-β Ab; 200 µg peptide
[10] = biological target: PKC-β (endogenous, IMR-32 lysate) (human) (UniProt P05771); test: WB competition Protocol A, IMR-32 lysate, vs anti-PKC-β Ab; 600 µg peptide
[11] = biological target: PKC-β (endogenous, IMR-32 lysate) (human) (UniProt P05771); test: WB competition Protocol B, IMR-32 extract, vs anti-PKC-β Ab; 300 µg peptide
PKC-δ, Q05655 = test: cell-based or functional assay
[12] = biological target: PKC-βI (purified isoform) (Homo sapiens (Human)) (UniProt P05771); test: competitive ELISA, coated purified PKC-βI, vs anti-PKC βI (SC-209); PRE 200 µM
[13] = biological target: PKC-βI (purified isoform) (Homo sapiens (Human)) (UniProt P05771); test: competitive ELISA, coated purified PKC-βI, vs anti-PKC βI (SC-209); PRE 100 µM
[14] = biological target: PKC-βI (purified isoform) (Homo sapiens (Human)) (UniProt P05771); test: competitive ELISA, coated purified PKC-βI, vs anti-PKC βI (SC-209); PRE 50 µM
[15] = biological target: PKC-βI (purified isoform) (Homo sapiens (Human)), P05771; test: competitive ELISA, coated purified PKC-βI, vs anti-PKC βI (SC-209); PRE 100 µM; settings: remark: other sources report otherwise
[16] = biological target: PKC-βI (purified isoform) (Homo sapiens (Human)), P05771; test: competitive ELISA, coated purified PKC-βI, vs anti-PKC βI (SC-209); PRE 50 µM; settings: remark: other sources report otherwise
[17] = biological target: PKC-βI (purified isoform) (Homo sapiens (Human)), P05771; test: competitive ELISA, coated purified PKC-βI, vs anti-PKC βI (SC-209); PRE 200 µM; settings: remark: other sources report otherwise

PKC-ζ, purified isoform, Q05513, sequence (Q05513 whole entry, canonical isoform): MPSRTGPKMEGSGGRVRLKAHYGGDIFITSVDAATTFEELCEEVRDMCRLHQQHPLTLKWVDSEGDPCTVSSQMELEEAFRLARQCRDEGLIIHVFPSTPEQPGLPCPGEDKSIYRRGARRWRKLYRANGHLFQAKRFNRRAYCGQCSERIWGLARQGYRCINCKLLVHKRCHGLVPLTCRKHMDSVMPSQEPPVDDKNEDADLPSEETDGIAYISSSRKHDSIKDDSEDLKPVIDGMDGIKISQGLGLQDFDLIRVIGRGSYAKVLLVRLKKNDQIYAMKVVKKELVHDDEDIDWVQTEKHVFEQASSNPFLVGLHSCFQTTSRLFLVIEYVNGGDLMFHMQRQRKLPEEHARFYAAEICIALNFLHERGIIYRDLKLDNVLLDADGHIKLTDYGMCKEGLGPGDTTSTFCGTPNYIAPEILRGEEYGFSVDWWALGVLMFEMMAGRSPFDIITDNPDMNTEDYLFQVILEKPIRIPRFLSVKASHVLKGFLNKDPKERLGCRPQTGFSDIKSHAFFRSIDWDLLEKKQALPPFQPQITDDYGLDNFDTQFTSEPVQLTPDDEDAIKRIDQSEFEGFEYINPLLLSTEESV
PKC-ζ, purified isoform, sequence (Q05513 whole entry, canonical isoform): as above
PKC-β (endogenous, IMR-32 lysate) (human), sequence (P05771 2-671): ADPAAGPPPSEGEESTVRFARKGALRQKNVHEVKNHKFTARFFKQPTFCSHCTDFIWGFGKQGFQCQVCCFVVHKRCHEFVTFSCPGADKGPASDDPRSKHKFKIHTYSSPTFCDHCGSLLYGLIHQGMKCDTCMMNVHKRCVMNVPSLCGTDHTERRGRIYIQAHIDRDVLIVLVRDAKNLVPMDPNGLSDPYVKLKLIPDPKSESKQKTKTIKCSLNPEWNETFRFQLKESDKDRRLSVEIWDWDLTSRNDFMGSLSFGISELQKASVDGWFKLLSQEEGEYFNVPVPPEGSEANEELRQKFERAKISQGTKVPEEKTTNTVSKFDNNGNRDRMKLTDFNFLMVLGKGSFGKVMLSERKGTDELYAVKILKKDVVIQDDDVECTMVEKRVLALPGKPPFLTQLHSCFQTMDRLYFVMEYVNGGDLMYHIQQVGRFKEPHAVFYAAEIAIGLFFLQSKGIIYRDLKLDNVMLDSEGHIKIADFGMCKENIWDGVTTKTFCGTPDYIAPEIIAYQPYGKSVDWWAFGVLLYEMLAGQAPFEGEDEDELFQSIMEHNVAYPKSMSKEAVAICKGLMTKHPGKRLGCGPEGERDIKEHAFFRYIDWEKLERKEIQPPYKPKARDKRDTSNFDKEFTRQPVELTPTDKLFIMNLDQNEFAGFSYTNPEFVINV
PKC-βI (purified isoform) (Homo sapiens (Human)), sequence (P05771 2-671 limits assumed): as the sequence (P05771 2-671) above
PKC-βI (purified isoform) (Homo sapiens (Human)), P05771, sequence (P05771 2-671 limits assumed): as the sequence (P05771 2-671) above
PKC-δ, Q05655, sequence (Q05655 whole entry, stated change not applied, canonical isoform): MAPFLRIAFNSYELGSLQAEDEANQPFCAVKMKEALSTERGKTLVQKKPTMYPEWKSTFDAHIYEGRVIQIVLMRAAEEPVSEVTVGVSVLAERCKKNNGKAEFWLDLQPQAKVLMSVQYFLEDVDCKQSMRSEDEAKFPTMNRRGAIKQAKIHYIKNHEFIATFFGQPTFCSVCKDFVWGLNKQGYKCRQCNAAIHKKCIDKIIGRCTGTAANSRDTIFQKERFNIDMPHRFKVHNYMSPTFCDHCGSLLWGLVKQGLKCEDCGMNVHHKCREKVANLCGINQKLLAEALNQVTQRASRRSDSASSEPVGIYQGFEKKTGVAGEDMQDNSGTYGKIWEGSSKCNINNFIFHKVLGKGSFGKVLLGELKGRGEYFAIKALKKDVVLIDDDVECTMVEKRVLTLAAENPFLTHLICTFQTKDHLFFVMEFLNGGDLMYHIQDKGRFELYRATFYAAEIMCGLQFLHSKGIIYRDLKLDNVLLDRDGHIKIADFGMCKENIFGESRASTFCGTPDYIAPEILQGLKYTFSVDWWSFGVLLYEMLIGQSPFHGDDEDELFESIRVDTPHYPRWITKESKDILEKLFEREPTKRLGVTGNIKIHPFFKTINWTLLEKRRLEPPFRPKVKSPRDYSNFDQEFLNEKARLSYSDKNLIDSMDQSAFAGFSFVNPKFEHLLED
PKC-δ, purified isoform, Q05655, sequence (Q05655 whole entry, stated change not applied, canonical isoform): as above

FRRK(adenine PNA)FRL [compound PKI 3]
% Inhibition of PKC activity at 150 µM [1]: 32%
% Inhibition of PKC activity at 300 µM [1]: 41%
% Inhibition of PKC activity at 600 µM [1]: 70%
% Inhibition of PKC activity at 150 µM [2]: 37%
% Inhibition of PKC activity at 300 µM [2]: 40%
% Inhibition of PKC activity at 600 µM [2]: 56%

Ac-AKGIQEVKGGKDAQNLIGISI-NH2 [PRE 5]
relative binding capacity (PKC-ζ, purified isoform [3]): 0%
relative binding capacity (PKC-ζ, purified isoform [4]): 0%
relative binding capacity (PKC-ζ, purified isoform [5]): 0%

Ac-AKGIQEVKGGDAQNLIGISI-NH2 [PRE 3]
Band Intensity [6]: 1.9
Inhibition (%) [6]: 0%
Relative Intensity (%) [6]: 102%
Band Intensity [7]: 0
Inhibition (%) [7]: 100%
Relative Intensity (%) [7]: 0%
Band Intensity [8]: 1.9
Inhibition (%) [8]: 0%
Relative Intensity (%) [8]: 102%
Band Intensity [9]: 0
Inhibition (%) [9]: 100%
Relative Intensity (%) [9]: 0%
Band Intensity [10]: 1.85
Inhibition (%) [10]: 0%
Relative Intensity (%) [10]: 99.6%
relative binding capacity (PKC-ζ, purified isoform [3]): 23.9%
Band Intensity [11]: 0
Inhibition (%) [11]: 100%
Relative Intensity (%) [11]: 0%
relative binding capacity (PKC-ζ, purified isoform [4]): 14%
relative binding capacity (PKC-ζ, purified isoform [5]): 29.1%

RRKKGGKDFVVKR [PRE 1]
Band Intensity [6]: 0.825
Inhibition (%) [6]: 28.9%
Relative Intensity (%) [6]: 71.1%
Band Intensity [8]: 0.528
Inhibition (%) [8]: 54.5%
Relative Intensity (%) [8]: 45.5%

Ac-FRRCFRLGGGGGGGRRKKGGKDFVVKR-NH2 [Compound TIM 20 (PRE 1 and PKI 4)]
% Inhibition of kinase activity (Kinase-Glo), compound at 5.0 µM (PKC-δ, Q05655): 46%
% Inhibition of kinase activity (Kinase-Glo), compound at 30.0 µM (PKC-δ, Q05655): 45.4%

FRRCFRL [compound PKI 4]
% Inhibition of PKC activity at 150 µM [1]: 90%
% Inhibition of PKC activity at 300 µM [1]: 90%
% Inhibition of PKC activity at 600 µM [1]: 95%
% Inhibition of PKC activity at 150 µM [2]: 60%
% Inhibition of PKC activity at 300 µM [2]: 60%
% Inhibition of PKC activity at 600 µM [2]: 58%

Ac-ISIGILQNADK-NH2 [PRE 7]
relative binding capacity (100-%n, DMSO subtracted) [12]: 0%
relative binding capacity (100-%n, DMSO subtracted) [13]: 0%
relative binding capacity (100-%n, DMSO subtracted) [14]: 2.1%
relative binding capacity (PKC-ζ, purified isoform [3]): 0%
relative binding capacity (PKC-ζ, purified isoform [4]): 1.83%
relative binding capacity (PKC-ζ, purified isoform [5]): 1.54%

KDAQNLIGISL-NH2 [PRE 2]
Band Intensity [6]: 0.8
Inhibition (%) [6]: 31%
Relative Intensity (%) [6]: 69%
Band Intensity [7]: 0.0322
Inhibition (%) [7]: 54.7%
Relative Intensity (%) [7]: 45.3%
Band Intensity [8]: 0.403
Inhibition (%) [8]: 65.3%
Relative Intensity (%) [8]: 34.7%
Band Intensity [9]: 0
Inhibition (%) [9]: 100%
Relative Intensity (%) [9]: 0%
Band Intensity [11]: 0
Inhibition (%) [11]: 100%
Relative Intensity (%) [11]: 0%

ILEDKGGDAQNLIGISI [PRE 8]
relative binding capacity (100-%n, DMSO subtracted) [15]: 0%
relative binding capacity (100-%n, DMSO subtracted) [16]: 0%
relative binding capacity (100-%n, DMSO subtracted) [17]: 0%

Ac-ISIGILNQADK-NH2 [PRE 10]
relative binding capacity (PKC-ζ, purified isoform [3]): 0%
relative binding capacity (PKC-ζ, purified isoform [4]): 0%
relative binding capacity (PKC-ζ, purified isoform [5]): 0%

Ac-KDAQNLI-NH2 [PRE 12]
relative binding capacity (PKC-ζ, purified isoform [3]): 8.77%
relative binding capacity (PKC-ζ, purified isoform [4]): 4.2%
relative binding capacity (PKC-ζ, purified isoform [5]): 0.33%

Ac-RDAQNLI-NH2 [PRE 13]
relative binding capacity (PKC-ζ, purified isoform [3]): 0%
relative binding capacity (PKC-ζ, purified isoform [4]): 0%
relative binding capacity (PKC-ζ, purified isoform [5]): 4.29%

Ac-RDAQNLIGISI-NH2 [PRE 11]
relative binding capacity (PKC-ζ, purified isoform [3]): 0%
relative binding capacity (PKC-ζ, purified isoform [4]): 0%
relative binding capacity (PKC-ζ, purified isoform [5]): 0%

Ac-KDAQNLIGISI-NH2 [PRE 4]
relative binding capacity (PKC-ζ, purified isoform [3]): 0%
relative binding capacity (PKC-ζ, purified isoform [4]): 0%
relative binding capacity (PKC-ζ, purified isoform [5]): 5.85%

Ac-KDANQLIGISI-NH2 [PRE 6]
relative binding capacity (PKC-ζ, purified isoform [3]): 0%
relative binding capacity (PKC-ζ, purified isoform [4]): 0%
relative binding capacity (PKC-ζ, purified isoform [5]): 0%

Ac-FRRCFRLGGGGGGGAKGIQEVKGGDAQNLIGISI-NH2 [Compound TIM 18 (PRE 3 and PKI 4)]
% Inhibition of kinase activity (Kinase-Glo), compound at 5.0 µM (PKC-δ, Q05655): 56.3%
% Inhibition of kinase activity (Kinase-Glo), compound at 30.0 µM (PKC-δ, Q05655): 85.1%
